± gives the uncertainty stated by the source.

A short description of the data set: abundance fitness (aPCA) (normalised: wild type 0, dead -1); higher = more abundant; growth selection in yeast, the domain comes from the species named. The note with it: Homo sapiens.
Regarding “Scaffold attachment factor B2 E67W, Q14151”, the abundance fitness was -0.85 ± 0.11.

With “Scaffold attachment factor B2 E67Y, Q14151”, the abundance fitness is -0.889 ± 0.34.

Take “Scaffold attachment factor B2 G50A, Q14151”: the abundance fitness was -0.099 ± 0.089.

As for “Scaffold attachment factor B2 G50C, Q14151”, the abundance fitness was -0.082 ± 0.12.

“Scaffold attachment factor B2 G50D, Q14151”: the abundance fitness was -0.171 ± 0.12.

As for “Scaffold attachment factor B2 G50E, Q14151”, the abundance fitness is -0.119 ± 0.084.

On to “Scaffold attachment factor B2 G50F, Q14151”, for which the abundance fitness was -0.51 ± 0.17.

As for “Scaffold attachment factor B2 G50H, Q14151”, the abundance fitness is -0.108 ± 0.093.

As to “Scaffold attachment factor B2 G50L, Q14151”, the abundance fitness was -0.194 ± 0.08.

Consider “Scaffold attachment factor B2 G50M, Q14151”, for which the abundance fitness is -0.114 ± 0.11.

“Scaffold attachment factor B2 G50N, Q14151”: the abundance fitness was -0.065 ± 0.1.

“Scaffold attachment factor B2 G50P, Q14151”: the abundance fitness is -1.01 ± 0.16.

As for “Scaffold attachment factor B2 G50Q, Q14151”, the abundance fitness is -0.329 ± 0.12.

For the substance “Scaffold attachment factor B2 G50R, Q14151”, the abundance fitness turned out to be 0.05 ± 0.079.

For the substance “Scaffold attachment factor B2 G50S, Q14151”, the abundance fitness is -0.077 ± 0.11.

For “Scaffold attachment factor B2 G50T, Q14151”, the abundance fitness is -0.096 ± 0.17.

For the substance “Scaffold attachment factor B2 G50V, Q14151”, the abundance fitness was -0.015 ± 0.08.

Turning to “Scaffold attachment factor B2 G50W, Q14151”, the abundance fitness is -0.26 ± 0.089.

Turning to “Scaffold attachment factor B2 G51C, Q14151”, the abundance fitness was -0.517 ± 0.13.

Take “Scaffold attachment factor B2 G51D, Q14151”: the abundance fitness was -0.7 ± 0.14.

As to “Scaffold attachment factor B2 G51E, Q14151”, the abundance fitness is -0.426 ± 0.094.

As for “Scaffold attachment factor B2 G51F, Q14151”, the abundance fitness is -0.882 ± 0.19.

Consider “Scaffold attachment factor B2 G51I, Q14151”, for which the abundance fitness is -1.25 ± 0.4.

Take “Scaffold attachment factor B2 G51K, Q14151”: the abundance fitness was -0.786 ± 0.15.

For “Scaffold attachment factor B2 G51L, Q14151”, the abundance fitness was -0.908 ± 0.087.

With “Scaffold attachment factor B2 G51M, Q14151”, the abundance fitness is -0.853 ± 0.12.

In the case of “Scaffold attachment factor B2 G51N, Q14151”, the abundance fitness is -0.833 ± 0.25.

In the case of “Scaffold attachment factor B2 G51P, Q14151”, the abundance fitness is -0.998 ± 0.26.

On to “Scaffold attachment factor B2 G51Q, Q14151”, for which the abundance fitness is -0.704 ± 0.096.

As for “Scaffold attachment factor B2 G51R, Q14151”, the abundance fitness is -0.794 ± 0.072.

As for “Scaffold attachment factor B2 G51S, Q14151”, the abundance fitness is -0.597 ± 0.085.

Turning to “Scaffold attachment factor B2 G51T, Q14151”, the abundance fitness is -0.633 ± 0.1.

Turning to “Scaffold attachment factor B2 G51V, Q14151”, the abundance fitness is -0.729 ± 0.084.

Take “Scaffold attachment factor B2 G51W, Q14151”: the abundance fitness is -1.41 ± 0.1.

Turning to “Scaffold attachment factor B2 G68A, Q14151”, the abundance fitness was 0.004 ± 0.094.

On to “Scaffold attachment factor B2 G68E, Q14151”, for which the abundance fitness was found to be 0.166 ± 0.095.

In the case of “Scaffold attachment factor B2 G68F, Q14151”, the abundance fitness is -0.509 ± 0.17.

Regarding “Scaffold attachment factor B2 G68I, Q14151”, the abundance fitness is -0.551 ± 0.099.

Substance “Scaffold attachment factor B2 G68K, Q14151” registered an abundance fitness of 0.232 ± 0.25.

As to “Scaffold attachment factor B2 G68L, Q14151”, the abundance fitness was -0.365 ± 0.098.

For “Scaffold attachment factor B2 G68M, Q14151”, the abundance fitness was -0.33 ± 0.12.

As for “Scaffold attachment factor B2 G68P, Q14151”, the abundance fitness was -0.19 ± 0.13.

Turning to “Scaffold attachment factor B2 G68Q, Q14151”, the abundance fitness is -0.078 ± 0.1.

On to “Scaffold attachment factor B2 G68S, Q14151”, for which the abundance fitness was -0.178 ± 0.12.

For the substance “Scaffold attachment factor B2 G68T, Q14151”, the abundance fitness was -0.026 ± 0.12.

As to “Scaffold attachment factor B2 G68V, Q14151”, the abundance fitness was -0.169 ± 0.092.

On to “Scaffold attachment factor B2 I36A, Q14151”, for which the abundance fitness came to 0.153 ± 0.082.

“Scaffold attachment factor B2 I36C, Q14151” showed an abundance fitness of 0.086 ± 0.099.

In turn, “Scaffold attachment factor B2 I36D, Q14151” had an abundance fitness of 0.206 ± 0.18.

For the substance “Scaffold attachment factor B2 I36E, Q14151”, the abundance fitness came to 0.157 ± 0.13.

Regarding “Scaffold attachment factor B2 I36F, Q14151”, the abundance fitness is -0.507 ± 0.17.

Consider “Scaffold attachment factor B2 I36G, Q14151”, for which the abundance fitness came out at 0.066 ± 0.068.

For “Scaffold attachment factor B2 I36H, Q14151”, the abundance fitness was -0.208 ± 0.2.

Consider “Scaffold attachment factor B2 I36K, Q14151”, for which the abundance fitness was 0.04 ± 0.089.

Take “Scaffold attachment factor B2 I36L, Q14151”: the abundance fitness is -0.103 ± 0.087.

In turn, “Scaffold attachment factor B2 I36M, Q14151” returned an abundance fitness of 0.043 ± 0.17.

As for “Scaffold attachment factor B2 I36N, Q14151”, the abundance fitness is -0.073 ± 0.13.

On to “Scaffold attachment factor B2 I36P, Q14151”, for which the abundance fitness is 0.067 ± 0.096.

Regarding “Scaffold attachment factor B2 I36Q, Q14151”, the abundance fitness was found to be 0.08 ± 0.12.

Regarding “Scaffold attachment factor B2 I36R, Q14151”, the abundance fitness turned out to be 0.079 ± 0.071.

The substance “Scaffold attachment factor B2 I36S, Q14151” returned an abundance fitness of 0.127 ± 0.081.

“Scaffold attachment factor B2 I36T, Q14151” displayed an abundance fitness of 0.173 ± 0.12.

As for “Scaffold attachment factor B2 I36V, Q14151”, the abundance fitness is -0.002 ± 0.091.

With “Scaffold attachment factor B2 K43A, Q14151”, the abundance fitness is 0.022 ± 0.097.

Turning to “Scaffold attachment factor B2 K43C, Q14151”, the abundance fitness is -0.271 ± 0.12.

Take “Scaffold attachment factor B2 K43D, Q14151”: the abundance fitness is -0.147 ± 0.11.

For “Scaffold attachment factor B2 K43E, Q14151”, the abundance fitness was -0.071 ± 0.084.

As for “Scaffold attachment factor B2 K43F, Q14151”, the abundance fitness was -0.601 ± 0.15.

With “Scaffold attachment factor B2 K43G, Q14151”, the abundance fitness was -0.172 ± 0.074.

Regarding “Scaffold attachment factor B2 K43I, Q14151”, the abundance fitness was -0.599 ± 0.17.

As for “Scaffold attachment factor B2 K43L, Q14151”, the abundance fitness is -0.191 ± 0.089.

For “Scaffold attachment factor B2 K43N, Q14151”, the abundance fitness was -0.367 ± 0.2.

Turning to “Scaffold attachment factor B2 K43P, Q14151”, the abundance fitness was -0.486 ± 0.12.

Consider “Scaffold attachment factor B2 K43Q, Q14151”, for which the abundance fitness is -0.124 ± 0.096.

Regarding “Scaffold attachment factor B2 K43R, Q14151”, the abundance fitness is -0.104 ± 0.076.

On to “Scaffold attachment factor B2 K43S, Q14151”, for which the abundance fitness was -0.057 ± 0.091.

As for “Scaffold attachment factor B2 K43T, Q14151”, the abundance fitness is -0.217 ± 0.1.

As to “Scaffold attachment factor B2 K43V, Q14151”, the abundance fitness is -0.149 ± 0.1.

Regarding “Scaffold attachment factor B2 K43W, Q14151”, the abundance fitness was -0.359 ± 0.094.

Consider “Scaffold attachment factor B2 K43Y, Q14151”, for which the abundance fitness was -0.961 ± 0.25.

For “Scaffold attachment factor B2 K44A, Q14151”, the abundance fitness was -0.067 ± 0.08.

Turning to “Scaffold attachment factor B2 K44C, Q14151”, the abundance fitness was -0.48 ± 0.12.

Take “Scaffold attachment factor B2 K44D, Q14151”: the abundance fitness is -0.549 ± 0.19.

For the substance “Scaffold attachment factor B2 K44E, Q14151”, the abundance fitness was -0.219 ± 0.091.

Take “Scaffold attachment factor B2 K44F, Q14151”: the abundance fitness was -0.61 ± 0.12.

For the substance “Scaffold attachment factor B2 K44G, Q14151”, the abundance fitness was -0.225 ± 0.072.

Take “Scaffold attachment factor B2 K44L, Q14151”: the abundance fitness is -0.256 ± 0.11.

For the substance “Scaffold attachment factor B2 K44M, Q14151”, the abundance fitness was -0.379 ± 0.14.

With “Scaffold attachment factor B2 K44N, Q14151”, the abundance fitness was -0.27 ± 0.13.

On to “Scaffold attachment factor B2 K44P, Q14151”, for which the abundance fitness is -0.509 ± 0.088.

Consider “Scaffold attachment factor B2 K44Q, Q14151”, for which the abundance fitness was -0.1 ± 0.18.

Turning to “Scaffold attachment factor B2 K44R, Q14151”, the abundance fitness was -0.06 ± 0.071.

“Scaffold attachment factor B2 K44S, Q14151”: the abundance fitness is -0.183 ± 0.083.

“Scaffold attachment factor B2 K44T, Q14151”: the abundance fitness was -0.347 ± 0.1.

Consider “Scaffold attachment factor B2 K44V, Q14151”, for which the abundance fitness is -0.221 ± 0.084.

Turning to “Scaffold attachment factor B2 K44W, Q14151”, the abundance fitness is -0.508 ± 0.081.

For the origin of these results see the Human Domainome abundance scans (Beltran et al. 2025).
